Experimental data: patent US20030186281A1, “Modified tetracycline repressor protein compositions and methods of use” (priority 2001, published 2003)
Changes are numbered by the printed parent chain. Names and notes keep the numbering of the source.

B1: TetRrevAD2/8: revTetR(BD) V20G D53N A54A A56G V57L I59F L60L R62R (protein)
chain: MSRLDKSKVINSALELLNEGGIEGLTTRKLAQKLGVEQPTLYWHVKNKRALLNALGLEFFARHHDYSLPAAGESWQSFLRNNAMSFRRALLRYRDGAKVHLGTRPDEKQYDTVETQLRFMTENGFSLRDGLYAISAVSHFTLGAVLEQQEHTAALTDRPAAPDENLPPLLREALQIMDSDDGEQAFLHGLESLIRGFEVQLTALLQIV
modifications: Modified tetracycline repressor
notes: revTetR(BD) V20G D53N A54A A56G V57L I59F L60L R62R
B2: TetRrevAtc4-14: revTetR(BD) L51L D53Q V57V E58K L60L A61V R62P H63D (protein)
chain: B1 chain with G20V, N53Q, G56A, L57V, E58K, F59I, F60L, A61V, R62P, H63D
modifications: Modified tetracycline repressor
notes: revTetR(BD) L51L D53Q V57V E58K L60L A61V R62P H63D
B3: TetRrevAF4/6: revTetR(BD) E15D L17I N18T E23G A54V D95A (protein)
chain: MSRLDKSKVINSALDLITEVGIGGLTTRKLAQKLGVEQPTLYWHVKNKRALLDVLAVEILARHHDYSLPAAGESWQSFLRNNAMSFRRALLRYRAGAKVHLGTRPDEKQYDTVETQLRFMTENGFSLRDGLYAISAVSHFTLGAVLEQQEHTAALTDRPAAPDENLPPLLREALQIMDSDDGEQAFLHGLESLIRGFEVQLTALLQIV
modifications: Modified tetracycline repressor
notes: revTetR(BD) E15D L17I N18T E23G A54V D95A
B4: TetRrev96/99-11: revTetR(BD) G96R V99Y (protein)
chain: B3 chain with D15E, I17L, T18N, G23E, V54A, A95D, G96R, V99Y
modifications: Modified tetracycline repressor
notes: revTetR(BD) G96R V99Y
B5: TetRrevAF6/1: revTetR(BD) A13A E19V V20A D95I G96G (protein)
chain: B3 chain with D15E, I17L, T18N, E19V, V20A, G23E, V54A, A95I
modifications: Modified tetracycline repressor
notes: revTetR(BD) A13A E19V V20A D95I G96G
B6: TetRrev96/99-1: revTetR(BD) G96H V99R (protein)
chain: B3 chain with D15E, I17L, T18N, G23E, V54A, A95D, G96H, V99R
modifications: Modified tetracycline repressor
notes: revTetR(BD) G96H V99R
B7: TetRrev96/99-6: revTetR(BD) G96N V99Q (protein)
chain: B3 chain with D15E, I17L, T18N, G23E, V54A, A95D, G96N, V99Q
modifications: Modified tetracycline repressor
notes: revTetR(BD) G96N V99Q
B8: TetRrev96/99-3: revTetR(BD) G96E V99T (protein)
chain: B3 chain with D15E, I17L, T18N, G23E, V54A, A95D, G96E, V99T
modifications: Modified tetracycline repressor
notes: revTetR(BD) G96E V99T
B9: TetRrevAtc4-16: revTetR(BD) D53N A54G V57F I59S L60F (protein)
chain: B1 chain with G20V, A54G, G56A, L57F, F59S
modifications: Modified tetracycline repressor
notes: revTetR(BD) D53N A54G V57F I59S L60F
B10: TetRrevAF4/9: revTetR(BD) L16R E19D E23D D95G V99A G102G (protein)
chain: B3 chain with D15E, L16R, I17L, T18N, E19D, G23D, V54A, A95G, V99A
modifications: Modified tetracycline repressor
notes: revTetR(BD) L16R E19D E23D D95G V99A G102G
B11: TetRrevAD2/5: revTetR(BD) L17F L55L L60F R62V (protein)
chain: B1 chain with L17F, G20V, N53D, G56A, L57V, F59I, R62V
modifications: Modified tetracycline repressor
notes: revTetR(BD) L17F L55L L60F R62V
B12: TetRrevAF5/5: revTetR(BD) L14V L17F V20A I22M L25F D95H (protein)
chain: B3 chain with L14V, D15E, I17F, T18N, V20A, I22M, G23E, L25F, V54A, A95H
modifications: Modified tetracycline repressor
notes: revTetR(BD) L14V L17F V20A I22M L25F D95H
B13: TetRrev96/99-9: revTetR(BD) G96H V99N (protein)
chain: B3 chain with D15E, I17L, T18N, G23E, V54A, A95D, G96H, V99N
modifications: Modified tetracycline repressor
notes: revTetR(BD) G96H V99N
B14: TetRrev96/99-13: revTetR(BD) G96T V99D (protein)
chain: B3 chain with D15E, I17L, T18N, G23E, V54A, A95D, G96T, V99D
modifications: Modified tetracycline repressor
notes: revTetR(BD) G96T V99D
B15: TetRrev96/99-14: revTetR(BD) G96N V99N (protein)
chain: B3 chain with D15E, I17L, T18N, G23E, V54A, A95D, G96N, V99N
modifications: Modified tetracycline repressor
notes: revTetR(BD) G96N V99N
B16: TetRrev96/99-8: revTetR(BD) G96N V99H (protein)
chain: B3 chain with D15E, I17L, T18N, G23E, V54A, A95D, G96N, V99H
modifications: Modified tetracycline repressor
notes: revTetR(BD) G96N V99H
B17: TetRrevAF5/1: revTetR(BD) L14F D95A V99G (protein)
chain: B3 chain with L14F, D15E, I17L, T18N, G23E, V54A, V99G
modifications: Modified tetracycline repressor
notes: revTetR(BD) L14F D95A V99G
B18: TetRrev96/99-7: revTetR(BD) G96L V99K (protein)
chain: B3 chain with D15E, I17L, T18N, G23E, V54A, A95D, G96L, V99K
modifications: Modified tetracycline repressor
notes: revTetR(BD) G96L V99K
B19: TetRrev96/99-2: revTetR(BD) G99K V99A (protein)
chain: B3 chain with D15E, I17L, T18N, G23E, V54A, A95D, G96K, V99A
modifications: Modified tetracycline repressor
notes: revTetR(BD) G99K V99A
B20: TetRrevAF4/13: revTetR(BD) A13A E15D L17L E19V I22I E23K R94H G95N (protein)
chain: B3 chain with I17L, T18N, E19V, G23K, V54A, R94H, A95N
modifications: Modified tetracycline repressor
notes: revTetR(BD) A13A E15D L17L E19V I22I E23K R94H G95N
B21: TetRrevAF5/3: revTetR(BD) E15G N18K R94H G96G G102V (protein)
chain: B3 chain with D15G, I17L, T18K, G23E, V54A, R94H, A95D, G102V
modifications: Modified tetracycline repressor
notes: revTetR(BD) E15G N18K R94H G96G G102V
B22: TetRrev96/99-12: revTetR(BD) G96H V99Q (protein)
chain: B3 chain with D15E, I17L, T18N, G23E, V54A, A95D, G96H, V99Q
modifications: Modified tetracycline repressor
notes: revTetR(BD) G96H V99Q
B23: TetRrev96/99-10: revTetR(BD) G96N V99P (protein)
chain: B3 chain with D15E, I17L, T18N, G23E, V54A, A95D, G96N, V99P
modifications: Modified tetracycline repressor
notes: revTetR(BD) G96N V99P
B24: TetRrev96/99-4: revTetR(BD) G96P V99S (protein)
chain: B3 chain with D15E, I17L, T18N, G23E, V54A, A95D, G96P, V99S
modifications: Modified tetracycline repressor
notes: revTetR(BD) G96P V99S
B25: TetRrevAF6/5: revTetR(BD) V20V I22V E23D D95N H100P (protein)
chain: B3 chain with D15E, I17L, T18N, I22V, G23D, V54A, A95N, H100P
modifications: Modified tetracycline repressor
notes: revTetR(BD) V20V I22V E23D D95N H100P
B26: TetRrevAF5/13: revTetR(BD) L14L V20G V99E (protein)
chain: B1 chain with N53D, G56A, L57V, F59I, F60L, V99E
modifications: Modified tetracycline repressor
notes: revTetR(BD) L14L V20G V99E
B27: TetRrev96/99-5: revTetR(BD) G96I V99K (protein)
chain: B3 chain with D15E, I17L, T18N, G23E, V54A, A95D, G96I, V99K
modifications: Modified tetracycline repressor
notes: revTetR(BD) G96I V99K
B28: TetRrevAD2/1: revTetR(BD) G21G L51L D53Y L55L A56P A61E (protein)
chain: B1 chain with E19G, G20V, N53Y, G56P, L57V, F59I, F60L, A61E
modifications: Modified tetracycline repressor
notes: revTetR(BD) G21G L51L D53Y L55L A56P A61E

System: tet operator sequence
Experiment: β-galactosidase activity of a tetracycline-regulated promoter in transformed E. coli with revTetR, in the presence and absence of anhydrotetracycline (atc)
Assay type: cell-based, Escherichia coli
Settings: RevTetR isolate cultured in the absence of anhydrotetracycline (ATC)
In short: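 TetR(BD) chimera mutants (TetR(B) residues 1–50, TetR(D) 51–208) expressed in E. coli regulating a tet operator-controlled lacZ. β-Galactosidase measured in Miller units at 28 °C and 37 °C with and without anhydrotetracycline; reported as percent of maximal expression without Tet repressor.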

Compared with B1, B2 is lower in “β-Galactosidase Activity, Cultured Without ATC” value: 73.8584 for the first, 62.985 for the second.

First: B3
Second: B4
The “β-Galactosidase Activity, Cultured Without ATC” value of the first is higher: 100.702 for the first, 97.6643 for the second.

Compared with B5, B6 is lower in “β-Galactosidase Activity, Cultured Without ATC” value: 72.8186 for the first, 58.4545 for the second.

Compared with B7, B8 is higher in “β-Galactosidase Activity, Cultured Without ATC” value: 103.602 for the first, 103.749 for the second.

Going from B9 to B10, the “β-Galactosidase Activity, Cultured Without ATC” value rises from 104.174 to 110.616.

First: B11
Second: B12
The “β-Galactosidase Activity, Cultured Without ATC” value of the first is lower: 50.466 for the first, 100.546 for the second.

First: B13
Second: B14
The “β-Galactosidase Activity, Cultured Without ATC” value of the first is lower: 71.6829 for the first, 103.963 for the second.

Compared with B15, B16 is lower in “β-Galactosidase Activity, Cultured Without ATC” value: 110.999 for the first, 103.657 for the second.

First: B17
Second: B18
The “β-Galactosidase Activity, Cultured Without ATC” value of the first is higher: 100.053 for the first, 55.0127 for the second.

First: B19
Second: B20
The “β-Galactosidase Activity, Cultured Without ATC” value of the first is lower: 94.5832 for the first, 98.8886 for the second.

First: B21
Second: B22
The “β-Galactosidase Activity, Cultured Without ATC” value of the first is lower: 58.5651 for the first, 102.406 for the second.

Compared with B23, B24 is higher in “β-Galactosidase Activity, Cultured Without ATC” value: 106.137 for the first, 109.291 for the second.

First: B25
Second: B26
The “β-Galactosidase Activity, Cultured Without ATC” value of the first is lower: 102.848 for the first, 105.942 for the second.

First: B27
Second: B28
The “β-Galactosidase Activity, Cultured Without ATC” value of the first is higher: 57.8391 for the first, 34.2242 for the second.

Same assay, conditions: RevTetR isolate cultured in the presence of anhydrotetracycline (ATC)

Compared with B1, B2 is higher in “β-Galactosidase Activity, Cultured With ATC” value: 1.8468 for the first, 25.025 for the second.

First: B3
Second: B4
The “β-Galactosidase Activity, Cultured With ATC” value of the first is lower: 3.7257 for the first, 18.656 for the second.

Going from B5 to B6, the “β-Galactosidase Activity, Cultured With ATC” value rises from 3.7966 to 25.484.

Going from B7 to B8, the “β-Galactosidase Activity, Cultured With ATC” value rises from 28.364 to 31.808.

First: B9
Second: B10
The “β-Galactosidase Activity, Cultured With ATC” value of the first is higher: 16.914 for the first, 1.3761 for the second.

Compared with B11, B12 is higher in “β-Galactosidase Activity, Cultured With ATC” value: 1.4141 for the first, 1.6948 for the second.

First: B13
Second: B14
The “β-Galactosidase Activity, Cultured With ATC” value of the first is lower: 14.528 for the first, 16.95 for the second.

First: B15
Second: B16
The “β-Galactosidase Activity, Cultured With ATC” value of the first is lower: 14.693 for the first, 24.309 for the second.

Going from B17 to B18, the “β-Galactosidase Activity, Cultured With ATC” value rises from 1.072 to 13.224.

Going from B19 to B20, the “β-Galactosidase Activity, Cultured With ATC” value falls from 31.604 to 2.5827.

First: B21
Second: B22
The “β-Galactosidase Activity, Cultured With ATC” value of the first is lower: 1.8337 for the first, 18.841 for the second.

Going from B23 to B24, the “β-Galactosidase Activity, Cultured With ATC” value rises from 20.797 to 32.997.

Going from B25 to B26, the “β-Galactosidase Activity, Cultured With ATC” value rises from 2.8572 to 4.4642.

Going from B27 to B28, the “β-Galactosidase Activity, Cultured With ATC” value falls from 17.087 to 1.17.
